system: Escherichia coli TOP10; test: shrunken log2 fold change of peptide-encoding DNA abundance (4.5 h post-induction vs induction); higher = less antimicrobial activity (less host growth inhibition); conditions: time post-induction: 4.5 h; library: site-saturation at positions 5, 18, 19, 20
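Note: peptides expressed intracellularly from a pBAD plasmid library in pooled LB shake-flask culture, induced with 0.3% L-arabinose, DNA abundance read by NGS, three biological replicates, DESeq2 with apeglm shrinkage.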

Row | Sequence | shrunken log2 fold change
1 | RRIRNRPPRLPRPRPRPAWDPRP | 0.151
2 | RRIRNRPPRLPRPRPRPAWTPRP | 0.182
3 | RRIRNRPPRLPRPRPRPAWWPRP | 0.293
4 | RRIRNRPPRLPRPRPRPAYDPRP | -0.119
5 | RRIRNRPPRLPRPRPRPAYNPRP | -0.259
6 | RRIRNRPPRLPRPRPRPAYYPRP | -0.0433
7 | RRIRNRPPRLPRPRPRPCARPRP | -0.213
8 | RRIRNRPPRLPRPRPRPCCQPRP | -0.6
9 | RRIRNRPPRLPRPRPRPCDCPRP | 0.0143
10 | RRIRNRPPRLPRPRPRPCESPRP | -0.00141
11 | RRIRNRPPRLPRPRPRPCGMPRP | -0.45
12 | RRIRNRPPRLPRPRPRPCGQPRP | 0.0151
13 | RRIRNRPPRLPRPRPRPCIVPRP | 0.045
14 | RRIRNRPPRLPRPRPRPCLLPRP | -0.414
15 | RRIRNRPPRLPRPRPRPCPKPRP | 0.0342
16 | RRIRNRPPRLPRPRPRPCQFPRP | -0.0212
17 | RRIRNRPPRLPRPRPRPCSHPRP | -0.331
18 | RRIRNRPPRLPRPRPRPCSTPRP | -0.194
19 | RRIRNRPPRLPRPRPRPCWCPRP | -0.147
20 | RRIRNRPPRLPRPRPRPCYEPRP | -0.0244
21 | RRIRNRPPRLPRPRPRPCYTPRP | -0.0126
22 | RRIRNRPPRLPRPRPRPDAFPRP | -0.0836
23 | RRIRNRPPRLPRPRPRPDAYPRP | 0.068
24 | RRIRNRPPRLPRPRPRPDKCPRP | -0.116
25 | RRIRNRPPRLPRPRPRPDLHPRP | 1.8

Row | Sequence | shrunken log2 fold change
26 | RRIRNRPPRLPRPRPRPDNEPRP | 0.114
27 | RRIRNRPPRLPRPRPRPDNFPRP | -0.00141
28 | RRIRNRPPRLPRPRPRPDNHPRP | -0.0531
29 | RRIRNRPPRLPRPRPRPDNSPRP | -0.188
30 | RRIRNRPPRLPRPRPRPDPEPRP | 0.211
31 | RRIRNRPPRLPRPRPRPDPHPRP | -0.263
32 | RRIRNRPPRLPRPRPRPDQIPRP | -0.0823
33 | RRIRNRPPRLPRPRPRPDRNPRP | -0.0291
34 | RRIRNRPPRLPRPRPRPDSRPRP | -0.0141
35 | RRIRNRPPRLPRPRPRPDTHPRP | -0.105
36 | RRIRNRPPRLPRPRPRPDTPPRP | 0.0123
37 | RRIRNRPPRLPRPRPRPDWLPRP | 0.156
38 | RRIRNRPPRLPRPRPRPDYHPRP | 0.00923
39 | RRIRNRPPRLPRPRPRPECHPRP | -0.0505
40 | RRIRNRPPRLPRPRPRPECNPRP | -0.0153
41 | RRIRNRPPRLPRPRPRPEEDPRP | 0.659
42 | RRIRNRPPRLPRPRPRPEERPRP | -0.116
43 | RRIRNRPPRLPRPRPRPEFDPRP | 0.0248
44 | RRIRNRPPRLPRPRPRPEFQPRP | -0.00325
45 | RRIRNRPPRLPRPRPRPEGAPRP | 2.8
46 | RRIRNRPPRLPRPRPRPEGQPRP | -0.00174
47 | RRIRNRPPRLPRPRPRPEHGPRP | -0.0132
48 | RRIRNRPPRLPRPRPRPEIYPRP | -0.00989
49 | RRIRNRPPRLPRPRPRPEKHPRP | -0.287
50 | RRIRNRPPRLPRPRPRPELCPRP | 0.232

Row | Sequence | shrunken log2 fold change
51 | RRIRNRPPRLPRPRPRPEMKPRP | -0.188
52 | RRIRNRPPRLPRPRPRPEMRPRP | -0.0181
53 | RRIRNRPPRLPRPRPRPEPDPRP | 0.0698
54 | RRIRNRPPRLPRPRPRPEQLPRP | 0.389
55 | RRIRNRPPRLPRPRPRPERDPRP | 0.157
56 | RRIRNRPPRLPRPRPRPERTPRP | -0.00566
57 | RRIRNRPPRLPRPRPRPETSPRP | 0.24
58 | RRIRNRPPRLPRPRPRPEVEPRP | 0.154
59 | RRIRNRPPRLPRPRPRPEVQPRP | 0.0358
60 | RRIRNRPPRLPRPRPRPEYKPRP | -0.203
61 | RRIRNRPPRLPRPRPRPEYRPRP | -0.159
62 | RRIRNRPPRLPRPRPRPFAAPRP | 0.0928
63 | RRIRNRPPRLPRPRPRPFARPRP | -0.113
64 | RRIRNRPPRLPRPRPRPFCDPRP | -0.133
65 | RRIRNRPPRLPRPRPRPFCFPRP | 0.567
66 | RRIRNRPPRLPRPRPRPFCHPRP | -0.476
67 | RRIRNRPPRLPRPRPRPFENPRP | -0.0135
68 | RRIRNRPPRLPRPRPRPFFRPRP | -0.378
69 | RRIRNRPPRLPRPRPRPFGAPRP | 0.00377
70 | RRIRNRPPRLPRPRPRPFGLPRP | -0.231
71 | RRIRNRPPRLPRPRPRPFGVPRP | 0.125
72 | RRIRNRPPRLPRPRPRPFHQPRP | 0.151
73 | RRIRNRPPRLPRPRPRPFIGPRP | -0.0677
74 | RRIRNRPPRLPRPRPRPFIVPRP | -0.279
75 | RRIRNRPPRLPRPRPRPFKDPRP | -0.327

Row | Sequence | shrunken log2 fold change
76 | RRIRNRPPRLPRPRPRPFKYPRP | -0.133
77 | RRIRNRPPRLPRPRPRPFLKPRP | -0.294
78 | RRIRNRPPRLPRPRPRPFNCPRP | -0.112
79 | RRIRNRPPRLPRPRPRPFNIPRP | 0.0411
80 | RRIRNRPPRLPRPRPRPFNSPRP | -0.0382
81 | RRIRNRPPRLPRPRPRPFNYPRP | -0.752
82 | RRIRNRPPRLPRPRPRPFSIPRP | 0.000741
83 | RRIRNRPPRLPRPRPRPFVCPRP | -0.45
84 | RRIRNRPPRLPRPRPRPFVFPRP | -0.0679
85 | RRIRNRPPRLPRPRPRPFWAPRP | 0.0267
86 | RRIRNRPPRLPRPRPRPFWIPRP | 0.0948
87 | RRIRNRPPRLPRPRPRPGADPRP | 0.0958
88 | RRIRNRPPRLPRPRPRPGCNPRP | -0.642
89 | RRIRNRPPRLPRPRPRPGCTPRP | 0.0156
90 | RRIRNRPPRLPRPRPRPGECPRP | 0.266
91 | RRIRNRPPRLPRPRPRPGENPRP | 0.185
92 | RRIRNRPPRLPRPRPRPGESPRP | -0.111
93 | RRIRNRPPRLPRPRPRPGICPRP | 0.122
94 | RRIRNRPPRLPRPRPRPGLQPRP | -0.113
95 | RRIRNRPPRLPRPRPRPGMIPRP | 0.00966
96 | RRIRNRPPRLPRPRPRPGMYPRP | -0.242
97 | RRIRNRPPRLPRPRPRPGPIPRP | 0.058
98 | RRIRNRPPRLPRPRPRPGQVPRP | 0.0381
99 | RRIRNRPPRLPRPRPRPGRNPRP | -0.202
100 | RRIRNRPPRLPRPRPRPGSMPRP | -0.225

Row | Sequence | shrunken log2 fold change
101 | RRIRNRPPRLPRPRPRPGSYPRP | -0.442
102 | RRIRNRPPRLPRPRPRPHFMPRP | -0.409
103 | RRIRNRPPRLPRPRPRPHFSPRP | 0.0053
104 | RRIRNRPPRLPRPRPRPHGMPRP | -0.0652
105 | RRIRNRPPRLPRPRPRPHHEPRP | -0.534
106 | RRIRNRPPRLPRPRPRPHIMPRP | -0.122
107 | RRIRNRPPRLPRPRPRPHKAPRP | 0.00883
108 | RRIRNRPPRLPRPRPRPHKMPRP | -0.634
109 | RRIRNRPPRLPRPRPRPHLQPRP | -0.198
110 | RRIRNRPPRLPRPRPRPHLTPRP | -0.0934
111 | RRIRNRPPRLPRPRPRPHMCPRP | -0.0575
112 | RRIRNRPPRLPRPRPRPHMFPRP | -0.0579
113 | RRIRNRPPRLPRPRPRPHMPPRP | -0.0765
114 | RRIRNRPPRLPRPRPRPHMSPRP | 0.0135
115 | RRIRNRPPRLPRPRPRPHQAPRP | -0.0146
116 | RRIRNRPPRLPRPRPRPHRPPRP | 0.128
117 | RRIRNRPPRLPRPRPRPHRYPRP | -0.345
118 | RRIRNRPPRLPRPRPRPHVCPRP | -0.00663
119 | RRIRNRPPRLPRPRPRPHVEPRP | -0.326
120 | RRIRNRPPRLPRPRPRPHVFPRP | -0.151
121 | RRIRNRPPRLPRPRPRPHVIPRP | -0.205
122 | RRIRNRPPRLPRPRPRPHVTPRP | -0.357
123 | RRIRNRPPRLPRPRPRPHVYPRP | -0.229
124 | RRIRNRPPRLPRPRPRPHYCPRP | -0.481
125 | RRIRNRPPRLPRPRPRPHYEPRP | 0.0239

Row | Sequence | shrunken log2 fold change
126 | RRIRNRPPRLPRPRPRPIAFPRP | -0.111
127 | RRIRNRPPRLPRPRPRPIDRPRP | 0.00281
128 | RRIRNRPPRLPRPRPRPIHFPRP | -0.263
129 | RRIRNRPPRLPRPRPRPIKVPRP | -0.607
130 | RRIRNRPPRLPRPRPRPILRPRP | -0.455
131 | RRIRNRPPRLPRPRPRPIMTPRP | -0.269
132 | RRIRNRPPRLPRPRPRPINFPRP | -0.27
133 | RRIRNRPPRLPRPRPRPIPWPRP | -0.102
134 | RRIRNRPPRLPRPRPRPIQIPRP | -0.363
135 | RRIRNRPPRLPRPRPRPIQQPRP | -0.000431
136 | RRIRNRPPRLPRPRPRPISDPRP | -0.0335
137 | RRIRNRPPRLPRPRPRPIVNPRP | 0.0189
138 | RRIRNRPPRLPRPRPRPIVWPRP | 0.0313
139 | RRIRNRPPRLPRPRPRPKCDPRP | -0.471
140 | RRIRNRPPRLPRPRPRPKCGPRP | -0.0686
141 | RRIRNRPPRLPRPRPRPKCHPRP | 0.0244
142 | RRIRNRPPRLPRPRPRPKDFPRP | -0.000911
143 | RRIRNRPPRLPRPRPRPKDRPRP | -0.0176
144 | RRIRNRPPRLPRPRPRPKFPPRP | -0.0759
145 | RRIRNRPPRLPRPRPRPKGAPRP | 0.476
146 | RRIRNRPPRLPRPRPRPKGPPRP | 0.0947
147 | RRIRNRPPRLPRPRPRPKGSPRP | -0.0293
148 | RRIRNRPPRLPRPRPRPKHFPRP | 0.054
149 | RRIRNRPPRLPRPRPRPKIMPRP | 0.0385
150 | RRIRNRPPRLPRPRPRPKIVPRP | -0.0195
